For experiment [1], the target named is T1, recombinant human IL23 (human, UniProt Q9NPF7;P29460). Briefly: BLI. (BLI is a label-free optical method that tracks binding on a fibre tip over time.)
Experiment [2] deals with T1, recombinant human IL23. Briefly: cell-based or functional assay.
For another experiment, the target named is recombinant rat IL23 (Rattus norvegicus, UniProt Q91Z84;Q9R278). Briefly: SPR. For orientation: SPR reads the build-up and loss of mass on a sensor chip optically.
For a further experiment, the target named is recombinant mouse IL23 (Mus musculus, UniProt Q9EQ14;P43432). Nature of the experiment: SPR.
The target of experiment [3] is T1, recombinant human IL23. Nature of the experiment: BLI. This is another data set of the same source.
Experiment [4] has as its target T1, recombinant human IL23. Nature of the experiment: SPR.
Experiment [5] has as its target recombinant cynomolgus IL23 (Macaca fascicularis, UniProt H6WS56;H6WS55). Briefly: SPR.
Experiment [6] concerns the target T1, recombinant human IL23. Briefly: SPR. This is another data set of the same source.
For experiment [7], the target named is T1, recombinant human IL23. Briefly: SPR. This is another data set of the same source.

Numbering of substitutions follows the chain as printed. Numbers in names are those of the source. A value given as a limit tells only on which side of the number the result lay.

This note sets out measurements from paper PMC4622456 (mAbs, 2015).

Chain of recombinant mouse IL23 (Q9EQ14 22-196, chain 1 of 2): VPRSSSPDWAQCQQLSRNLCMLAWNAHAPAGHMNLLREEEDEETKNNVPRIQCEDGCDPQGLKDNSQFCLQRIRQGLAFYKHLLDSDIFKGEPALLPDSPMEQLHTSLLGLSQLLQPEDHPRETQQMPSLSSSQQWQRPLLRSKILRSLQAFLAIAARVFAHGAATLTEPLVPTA
Chain of recombinant mouse IL23 (P43432 23-335, chain 2 of 2): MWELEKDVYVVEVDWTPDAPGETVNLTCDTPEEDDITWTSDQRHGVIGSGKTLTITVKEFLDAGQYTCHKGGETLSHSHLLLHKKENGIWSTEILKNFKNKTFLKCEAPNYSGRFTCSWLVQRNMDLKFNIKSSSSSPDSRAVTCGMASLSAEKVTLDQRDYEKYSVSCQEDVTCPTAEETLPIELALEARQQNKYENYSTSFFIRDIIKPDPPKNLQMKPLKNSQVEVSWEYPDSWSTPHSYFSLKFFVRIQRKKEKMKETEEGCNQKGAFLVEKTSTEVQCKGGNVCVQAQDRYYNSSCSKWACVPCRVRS
T1 sequence (Q9NPF7 20-189, chain 1 of 2): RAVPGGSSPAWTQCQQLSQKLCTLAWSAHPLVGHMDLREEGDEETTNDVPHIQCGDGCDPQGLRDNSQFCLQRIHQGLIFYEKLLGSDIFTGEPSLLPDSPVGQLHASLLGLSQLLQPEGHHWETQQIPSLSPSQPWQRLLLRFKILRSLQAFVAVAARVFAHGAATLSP
T1 sequence (P29460 23-328, chain 2 of 2): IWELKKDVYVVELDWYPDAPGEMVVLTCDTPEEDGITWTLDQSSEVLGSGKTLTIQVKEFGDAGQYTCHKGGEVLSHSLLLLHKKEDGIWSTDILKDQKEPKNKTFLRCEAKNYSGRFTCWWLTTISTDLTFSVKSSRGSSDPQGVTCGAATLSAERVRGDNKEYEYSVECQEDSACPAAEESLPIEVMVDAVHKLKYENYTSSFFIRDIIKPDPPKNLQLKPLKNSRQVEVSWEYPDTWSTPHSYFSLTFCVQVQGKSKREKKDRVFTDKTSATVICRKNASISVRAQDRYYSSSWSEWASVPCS

B1: 18E5 (antibody, V domains shown)
VH: EVQLQQSGPELVKPGAAVKMSCKASGYTFTRYLIHWVKQKPGQGLEWIGYINPYNDGTKYNEKFKGKATLTSDKSSSTAYMELSSLTSEDSAVYYCTSNWDLDYWGQGTTLTVSS
VL: DIVMTQSPATLSVTPGDRVSLSCRASQSISDYLYWYQQKSHESPRLLIKFASQSISGIPSRFTGSGSGSDFTLSIDSVEPDDVGVFFCQNGHSFPFTFGGGTKLEIK
As to B1, the Kd with recombinant human IL23 [1] was less than 0.01 nM. In the experiment with recombinant human IL23 [2], the “Inhibition of IL23 induced IL17 production in mouse splenocytes (IC50, pM)” value (shortened to “Inhibition”) was less than 13 pM.

B2: 26F7 (antibody, V domains shown)
VH: EVQLQQSGPELVKPGASVKISCKASGYTFTDYYMNWVRQSHGESLEWIGDFNHNNDVITYNPKFKGKVTLTVEKSSTTAYMELRSLSSEDSAVYYCARGLRGYYAMDYWGQGTSVTVSS
VL: DIVLTQSPASLAVSLGQRATISCRASKSVRFSDYFYMHWYQQKPGQPPKLLIYLASNLESGVPARFSGSGSGTDFTLNIHPVEEEDAATYYCQNSRELPYTFGGGTKLEIK
With B2, the Kd with recombinant human IL23 [1] was determined as 0.028 nM. Besides, the “Inhibition” value in the experiment with recombinant human IL23 [2] came to 9 pM.

B3: BI 655067 (VH 05-Vk65 IgG1) (antibody, V domains shown)
VH: QVQLVQSGAEVKKPGSSVKVSCKASGFTFTDQTIHWVRQAPGQGLEWMGYIYPRDDSPKYNENFKGKVTLTADKSTSTAYMELSSLRSEDTAVYYCAIPDRSGYAWFIYWGQGTLVTVSS
VL: DIQMTQSPSSLSASVGDRVTITCKASRDVAIAVAWYQQKPGKVPKLLLFWASTRHTGVPDRFSGSGSGTDFTLTISSLQPEDLADYYCHQYSSYPFTFGQGTKLEIK
Turning to B3, the binding result with recombinant rat IL23 and in the experiment with recombinant mouse IL23 was “no binding (tested: 1.2 μM)” each time. In addition, in the experiment with recombinant human IL23 [3], the “kon(serum)/kon(buffer)” value turned out to be 1.2. Besides, the Kd (with recombinant human IL23 [4]; in experiment [5]) was less than 0.01 nM in each case.

B4: VH 65-Vk65 IgG1 (antibody, V domains shown)
VH: B3 VH with F27G, K67R, Y95F, I98R
VL: B3 VL
Turning to B4, the Kd with recombinant human IL23 [4] came to 0.107 nM.

B5: BI 655066, CHO derived (antibody, V domains shown)
VH: B3 VH with F27Y, V37M, M48I, L70I
VL: B3 VL with L48I, F49Y, D60S, G68R, L83V, Y87F, Q100S
Take B5: the Kd in the experiment with recombinant human IL23 [6] is less than 0.01 nM.

B6: VH 02-Vk78 IgG1 (antibody, V domains shown)
VH: B3 VH with F27Y, V37M, M48I, L70I
VL: B3 VL with G68R, Q100S
Take B6: the Kd in the experiment with recombinant human IL23 [4] was less than 0.01 nM.

B7: VH 65-Vk66 IgG1 (antibody, V domains shown)
VH: B3 VH with F27G, K67R, Y95F, I98R
VL: B3 VL with L48I, F49Y, D60S, G68R, L83V, Y87F, Q100S
With B7, the Kd with recombinant human IL23 [4] was less than 0.01 nM.

B8: VH 36-Vk78 IgG1 (antibody, V domains shown)
VH: B3 VH with V20T, F27G, A40R, K67R, L70I
VL: B3 VL with G68R, Q100S
As to B8, in the experiment with recombinant human IL23 [4], the Kd is less than 0.01 nM.

B9: BI 655066, NS0 derived (human IgG1 Fc L234A, L235A) (antibody, V domains shown)
VH: B3 VH with F27Y, V37M, M48I, L70I
VL: B3 VL with L48I, F49Y, D60S, G68R, L83V, Y87F, Q100S
Take B9: the Kd with recombinant human IL23 [6] was less than 0.01 nM.

B10: VH 65-Vk78 IgG1 (antibody, V domains shown)
VH: B3 VH with F27G, K67R, Y95F, I98R
VL: B3 VL with G68R, Q100S
With B10, the Kd with recombinant human IL23 [4] was less than 0.01 nM.

B11: VH 36-Vk65 IgG1 (antibody, V domains shown)
VH: B3 VH with V20T, F27G, A40R, K67R, L70I
VL: B3 VL
With B11, the Kd with recombinant human IL23 [4] came out at 0.096 nM.

B12: BI 655069 (VH 05-Vk66 IgG1) (antibody, V domains shown)
VH: B3 VH
VL: B3 VL with L48I, F49Y, D60S, G68R, L83V, Y87F, Q100S
As to B12, the binding result with recombinant rat IL23 and in the experiment with recombinant mouse IL23 was “no binding (tested: 1.2 μM)” each time. Besides, the “kon(serum)/kon(buffer)” value in the experiment with recombinant human IL23 [3] was 1.2. Moreover, the Kd came to 0.036 nM in the experiment with recombinant human IL23 [4] and 0.016 nM in experiment [5].

B13: VH 36-Vk66 IgG1 (antibody, V domains shown)
VH: B3 VH with V20T, F27G, A40R, K67R, L70I
VL: B3 VL with L48I, F49Y, D60S, G68R, L83V, Y87F, Q100S
On to B13, for which, in the experiment with recombinant human IL23 [4], the Kd is less than 0.01 nM.

B14: BI 655066 (VH 02-Vk66 IgG1) (antibody, V domains shown)
VH: B3 VH with F27Y, V37M, M48I, L70I
VL: B3 VL with L48I, F49Y, D60S, G68R, L83V, Y87F, Q100S
For B14, the binding result in the experiment with recombinant rat IL23 and in the experiment with recombinant mouse IL23 was “no binding (tested: 1.2 μM)” throughout. The “kon(serum)/kon(buffer)” value with recombinant human IL23 [3] came to 1.2. The Kd (with recombinant human IL23 [4]; in [5]) was less than 0.01 nM throughout.

B15: BI 655068 (VH 02-Vk65 IgG1) (antibody, V domains shown)
VH: B3 VH with F27Y, V37M, M48I, L70I
VL: B3 VL
For the molecule B15, the binding result with recombinant rat IL23 and with recombinant mouse IL23 was “no binding (tested: 1.2 μM)” throughout. The “kon(serum)/kon(buffer)” value with recombinant human IL23 [3] stood at 1. In addition, the Kd with recombinant human IL23 [4] is 0.015 nM; in [5], less than 0.01 nM.

B16: 15C11 (antibody, V domains shown)
VH: EVQLQQSGPVLVKPGASVKMSCKASGYTFTDYYMNWVKQSHGKSLEWIGVIIPYNGGTSYNQKFKGKATLTVDKSSSTAYMELNSLTSEDSAVYYCARDGHRWYFDVWGTGTTVTVSS
VL: DVVMTQTPLSLPVSLGDQASISCRSSQSLVHSNGNTYLHWYLQKPGQSPKLLIYKVSNRFSGVPDRFSGSGSGTDFTLKINRVEAEDLGVYFCSQSTHVPYTFGGGTQLEIK
Consider B16, for which, in the experiment with recombinant human IL23 [1], the Kd is 0.026 nM. Also, the “Inhibition” value with recombinant human IL23 [2] came out at 197 pM.

B17: 34G3 (antibody, V domains shown)
VH: EFQLQQSGPELVKPGASVKISCKASGYSFTDYNMNWVKQSKGKSLEWIGVIIPNYGFTSYNQNFKGKATLTVDQSSSTAHMQLNSVTSEDSAVYYCVRDGGILLWYLDVWGTGTTVTVSS
VL: B16 VL with N81S, Q108K, K112N
For B17, in the experiment with recombinant human IL23 [1], the Kd was 0.033 nM. Besides, the “Inhibition” value with recombinant human IL23 [2] came out at 8 pM.

B18: mouse 6B8 (antibody, V domains shown)
VH: QVQLQQSDAELVKPGTSVKTSCKISGNTFTDQTIHWMKQRPEQGLEWIGYIYPRDDSPKYNENFKGKATLTADKSSSTAYMQLNSLTSEDSAVYFCAIPDRSGYAWFIYWGQGTLVTVSS
VL: DIVMTQSHKFLSTSVGDRVTITCKASRDVAIAVAWYQQKPGQSPKLLLFWASTRHTGVPDRFTGSGSRTDFTLTISNVQSEDLADYFCHQYSSYPFTFGSGTKLEIK
For the molecule B18, the Kd in the experiment with recombinant human IL23 [7] came to 0.025 nM. Further, in the experiment with recombinant human IL23 [2], the “Inhibition” value is 8 pM.

B19: recombinant chimeric 6B8 (antibody, V domains shown)
VH: B18 VH
VL: B18 VL
B19: the Kd with recombinant human IL23 [7] was less than 0.01 nM.

By Kd is commonly meant the concentration at which binding is half-saturated.
